Data from the domain aggregation screens of Martell et al. (2025).

Experiment: soluble fraction after stress (log2 fold change); higher = more stays soluble; pooled small domains, quantitative proteomics
Conditions: stress: 75 degC
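Note: 20 min heating vs room temperature control held 20 min.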

Row | Sequence | soluble fraction (log2)
1 | HMRSNIYTEEKLWTVLQDFFQENRYLTISLMRMKFGLSRHMAQKWIDHFIAKGLLVKDGTPRSPIYFLND | -2.46
2 | HMRSNQKVSQIAISQVLPGMVTAKNVYSRNDQLILNRETTLDSTKIAKIMFYAIESIYVYEPE | -2.21
3 | HMRSPVDALSNRELQVLQMVGRGLSSRQVAEALHLSVKTVEAHRQRIKGKLGLRTGAQLVQFAANWVTG | -1.75
4 | HMRSREGVRWIIRERIMEELQERHHMDDGELLEMIDRSIGEMGQEIFLPLKERIWLRGSLFDSFR | -3.07
5 | HMRSWRDQRVDDLLAAVSELGMTMSRAAAGDLLDQRVEYVANQMRVTPATARKYLTEETLAGMAREIVFG | -1.02
6 | HMRTAFPQLTERELEILDLIAAGRNNAQIASALYLAPKTVRNNVSNILAKLQATDRAEAIIRARDAGLGG | -0.201
7 | HMRTAKEVFYKELKGYMQNGDELSVKKIYSLFPEINPKTVSWRLHELVQHGKIHRTGHGYYALTQ | -1.37
8 | HMRTDTIINSGGLKINPEEVENEILKSLGDNNFFIDKIKNDKFGEEIILIALKKIKINLLIESLNLI | 0.0576
9 | HMRTFFEIEQLKAYVGEEIQVKFEADSHKQTVLGKLISISEDFIEIENSKKGNLKISLDNYLTSKLIY | -2.23
10 | HMRTGSSVLVGLVAPVRLGATGAPKVFADGALWEARSAVPLNDGQLVEITGTDGLTVLVKPSA | -0.122
11 | HMRTIVSELNDIKGISDASAKKLLIRYGSFEAVREAVMKHEEEFELDMGKRITGALTRYFYEE | -1.78
12 | HMRTKLEEAVEWLQEQLNDGPVLSKELESEAKAADILPGTLRRAGEALGVVKQKQGGRGGWTWSLPR | -0.017
13 | HMRTLGADLRALRKARGLTLAGMADNMGKSVGWMSQIERDISEPSISDLRALAKLLDVSVSSLFR | -2.54
14 | HMRTQEELVAEVREQMEAMGTIATLYVELYESSEERLVGGVIFEDERHYRFVYEDGLLHYEEEK | -0.527
15 | HMRTRSDVKRAAIIQAAKDAFQEYGVNATSMDKLAEMASVSKRTVYNHFSAKEELVMHIVKE | 0.538
16 | HMRTVPEALLGRAYETAETAIVLEGLEAKRTDVFHPTIGNGTVIRLEPASGSQVSAGGVIEIFVSKGTETI | -0.346
17 | HMRVDYKTQLQELLQRQGAAAPQYRLLVEEGPAHLRRFQVGVYFQGRLLGTGWGRNKKEAEQEAARQALMP | -1.9
18 | HMRVEEVGYGEFLQMAEERDLAEVQVTDTEIIFSDKDTPPNYYKTGRMDDPFLVDRLYSAGIRDFGE | -0.136
19 | HMRVESVGDRIRRLRKSLGLTQVKLAQMLGIKAPSVVQWESDKTNLSGENLLNAAKLFGVTPDYILYGG | -0.197
20 | HMRVLEYTADGSRLDVLLSQDGVLSRSRAAELIKGGAVTVDGRAEGKPSAKPAPGALVRVEVPE | 0.0615
21 | HMRVVGRNHYDDADLAHIRSVIQLEARPLNVSRIARTLANEYPKHTYWSYLSFLQKNLRDRPDLF | -1.96
22 | HMRVVPEILERAVAVFEALGVDRLPSSTLADRLGYDSPEALADVLRPLGVRPKKYRDGKSTARGYLAADLG | -0.526
23 | HMRYEESVTLGERLLNQSLVALKADNIDDALWERFLREEAGEKSRQEILSDIGLGKRLPVVVAKRLLAPS | -0.115
24 | HMRYPLPYAFARSQQLLLEETDDGRYTLWMSSHPARSAVGEVSRKYGVQTFEVLADGPLAQRISAAYAQ | -0.983
25 | HMRYTAAEMAKKLDISRSYLYYLKEAGVVEIEKNENGKPIWTESVYNQLFEYIKKNHRTEEADNTQ | -0.805
26 | HMSAAIGEAVIATDEINVRSGPGLSHEIVSVVSRNESYPILEERGDWVQIQLNGGQKGWVVSWLIKKKS | -0.665
27 | HMSAAMTESVLDGIPGLGATRKAALLAHFGSVRKLRAATSEQVREVPGIGPRLAETILATLHEP | -0.52
28 | HMSAATGIINTDNVNIRSGPATTYDAVGRLNQGSSVEILSSRNDWYQIQANSLKGWVRNDLLNVQK | -0.00758

Row | Sequence | soluble fraction (log2)
29 | HMSADDLVSRTQAIVAELKDLEGPLLPILHSVQEAFGHVPDEVKPVIAEALNLSRAEVHGVVSFYHDFRAH | -0.126
30 | HMSADIGAEKAKTIALNHAGVSASNAVFLHAKLDYDDGRRTYEVEFYSGSKEYDYEIDAATGEILSYDFD | -0.929
31 | HMSAEAYLSFVKKENLRAAVVNYENNKEWLKDVPHERLLDLAVFAKVDMGEPGMSMKFNNWLLSR | -0.934
32 | HMSAEKDGEWLTLTEAAKHLQVSPHVIRRLIQTGALPAEQVMRGAPHQIRAADLDTDRVKTMIAR | 0.133
33 | HMSAEKPVKSELFYKSMLNSFEQAVRFMIANGILEDFKSRIVAINNETNHQNWFNKQEFNAIIERF | -1.49
34 | HMSAERFDFRIGPELAGKRFDQALAEALPQFSRSRLSTWIKDGRATLNGATMRPKDSVHAGDTVVVNAE | -0.186
35 | HMSAEVEVPDVVGRQVALAVQLIETKKLRVNVAETYDAKVPPGQVISQSPEAGMKVKEERVITIYVSR | -1.36
36 | HMSAGISVADVTNRTYDEGYNTLTAQHLLVNKVYEANETIPLDTIIRTDPVAGTKVPDNTSITVYVSSGK | 0.382
37 | HMSAGPQGRTPREDELTVGTKVYVSRVGASGVVSSDVSRGKVVVQVGALRLTAAVSELLLLDG | -1.21
38 | HMSAGYTYQNYQQDLKSGNVQNIHIYLSEEMYSGNVKVIYKNNKSVTFTVTDVTIAEAEARQVGISPIIYE | -2.38
39 | HMSAHDLQVVLRWIGTDEPMTDQRYRITTEDGRTFEGRTDDAGLTERVASTIPFGRYSIEALD | -0.278
40 | HMSAIEIDAEKILNYLTDRGGKMPYGDTTAPEVIKDKFNISKAAFKRALGFLLRSNKIEQIDGWTYI | -0.433
41 | HMSAIKSVTTQLDNTKLRTGPDVSYQYTQSYPANTKLTYINKSGTWYQVKDADGNTGYVASWVVTPSE | 0.586
42 | HMSALIGAHTLERIDSRDFEGVVMAWLPKRDGYDSLYKIYHIEDGDFEELDDREVQAAISLFIEGT | -0.381
43 | HMSAPAMTLDSIRSLLNDRDPWVVTQTVEWLVGLGPQVKTILETLTLESSDAARQAQNALDRINVRNYP | -0.796
44 | HMSAPNPGQMHSWTDTQGRTLQATFIKADATTVTLNWNGRIVPIPLANLNAASQKLARELASAS | -0.443
45 | HMSAPRRGETTAASLNLRAGPATDADILAQLPERTPLRVLQEDGEWLRVETHGNEGFVHRQFVAIPGDEP | 0.0338
46 | HMSARRHAVKHLDANQLQTRVARMLSEFGLTAKVSKDPNSNALIIDGAPEAQRIAAQLITTIDKE | 0.0709
47 | HMSASSDATRQRVLRAAEQLFGAKGVENVSLREMTTLAGVNLAAVNYHFGSKDALAEAVFEALSER | 0.253
48 | HMSASSEALKTAVRKVLLNNRMTQDRMARDAGLSGSALSQWLHGKYQGDVPALEGRLAAWLADTQAS | 0.0606
49 | HMSASSTAPGSVTLRGAILTAWTAAGGERSKMGLPVGYEVRQADGTVTQTFEKGRISVSPTGTATI | 0.0449
50 | HMSAVNLNDDEKAVYKSIKSGIRSLDELSLRTGMKIYELMAITVSLEMKGLVTKSPDGTLDAT | -0.743
51 | HMSDAKKRAFSKDEILYSLKNRPFTSFDIESLFDDESKKTFIGLLDKGEISEKKVAGTIFYYLR | -0.817
52 | HMSDEEAISKLPGVGPAILEKLKEAGYNDIMTIAVDSPKNLAELAEIGEPTAAKIIAAAKKAAD | 0.113
53 | HMSDIDIDVENDRAALAIAGGKLNHLVGARGEVLDALQELTRLAVQTSLGERSRLMLDIDNFRSD | 0.185
54 | HMSDIHARIAAALAALTSPEKIHDLVVDDDGKVSFTFHLTREDPATLVRDARKAVQAVDGVRDVKVNVVDP | 0.134
55 | HMSDKEDIDKYLLTYGDLLFNRTNSSEWVGKTAIYRGEVSAIYAGYLIRIRSFLDAEYLNSVMNSKYA | 0.1
